T1: VEGFR-3-Ig (human, UniProt P35916 25-775)
T1 construct: extracellular domain; also called soluble Ig-fusion protein containing the extracellular domain of human VEGFR-3; not shown: Fc portion of human IgG1
T1 sequence (looked up): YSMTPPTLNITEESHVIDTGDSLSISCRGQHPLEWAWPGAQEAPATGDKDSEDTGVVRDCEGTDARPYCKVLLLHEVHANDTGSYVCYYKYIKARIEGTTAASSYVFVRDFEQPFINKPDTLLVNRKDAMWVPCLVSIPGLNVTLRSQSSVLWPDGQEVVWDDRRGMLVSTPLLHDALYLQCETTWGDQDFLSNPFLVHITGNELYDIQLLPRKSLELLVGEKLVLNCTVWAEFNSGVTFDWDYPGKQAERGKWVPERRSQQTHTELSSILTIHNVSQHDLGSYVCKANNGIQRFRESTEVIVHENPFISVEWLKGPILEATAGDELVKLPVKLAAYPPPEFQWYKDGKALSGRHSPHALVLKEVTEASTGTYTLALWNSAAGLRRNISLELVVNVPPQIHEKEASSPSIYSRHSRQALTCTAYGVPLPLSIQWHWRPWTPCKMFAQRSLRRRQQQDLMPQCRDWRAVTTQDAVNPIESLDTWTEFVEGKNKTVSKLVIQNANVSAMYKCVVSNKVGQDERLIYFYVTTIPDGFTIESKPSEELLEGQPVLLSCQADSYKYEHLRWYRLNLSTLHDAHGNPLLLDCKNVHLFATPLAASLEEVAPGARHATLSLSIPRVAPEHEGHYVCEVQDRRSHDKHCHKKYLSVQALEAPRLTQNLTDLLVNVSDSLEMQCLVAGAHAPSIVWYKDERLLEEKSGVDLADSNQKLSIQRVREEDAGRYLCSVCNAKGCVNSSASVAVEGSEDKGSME

B1: FLAG-tagged ORFV2-VEGF (ligand)
chain: DSNTKGWSEVLKGSECKPRPIVVPVSETHPELTSQRFNPPCVTLMRCGGCCNDESLECVPTEEVNVTMELLGASGSGSNGMQRLSFVEHKKCDCRPRFTTTPPTTTRPPRRRR
notes: Disulfide-linked homodimer, glycosylated; Expressed in COS or 293EBNA cells; also called NZ2; ORVF2-VEGF; not shown: FLAG octapeptide at the C-terminus
B2: FLAG-tagged NZ10 (ligand)
chain: DSTKTWSEVFESSKCKPRPTVVPVGEAHPELTSQRFNPQCVTVMRCGGCCNDESLECVPTEEANVTMQLMGASVSGGNGMQHLIFVEHKKCDCKPRLTTTPPTTTRPPRRRR
notes: Disulfide-linked homodimer, secreted from 293EBNA-1 cells and purified on M2-gel; also called ORFV10-VEGF; not shown: FLAG octapeptide at the C-terminus
B3: mouse VEGF164 (ligand, UniProt Q00731-2 27-190, looked up)
chain: APTTEGEQKSHEVIKFMDVYQRSYCRPIETLVDIFQEYPDEIEYIFKPSCVPLMRCAGCCNDEALECVPTSESNITMQIMRIKPHQSQHIGEMSFLQHSRCECRPKKDRTKPENHCEPCSERRKHLFVQDPQTCKCSCKNTDSRCKARQLELNERTCRCDKPRR

Tests used:
[1] = target: T2, VEGFR-1-Ig (human, UniProt P17948 27-758); test: precipitation of 35S-labeled conditioned medium with receptor-Ig on protein A-Sepharose, SDS-PAGE, phosphorimager
T2 construct: extracellular domain; also called soluble Ig-fusion protein containing the extracellular domain of human VEGFR-1; not shown: Fc portion of human IgG1
Procedure: (§1) To further assess the interactions between ORFV2-VEGF and the VEGFRs, ORFV2-VEGF was tested for its capacity to bind to soluble Ig-fusion proteins containing the extracellular domains of human VEGFR-1, VEGFR-2 and VEGFR-3. The fusion proteins, designated VEGFR-1-Ig, VEGFR-2-Ig and VEGFR-3-Ig, were transiently expressed in 293 EBNA cells. All Ig fusion proteins were human VEGFRs. Cells were incubated for 24 hours after transfection, washed with DMEM containing 0.2% bovine serum albumin and starved for 24 hours. The fusion proteins were then precipitated from the clarified conditioned medium using protein A-Sepharose beads. The beads were combined with 100 µl of 10x binding buffer (5% bovine serum albumin, 0.2% Tween 20 and 10 µg/ml heparin) and 900 µl of conditioned medium from 293 cells that had been transfected with expression plasmids encoding VEGF, VEGF-DΔNΔC,ORFV2-VEGF or control vector, then metabolically labeled with ^35S-cysteine/methionine for 4 to 16 hours. After 2.5 hours, at room temperature, the Sepharose beads were washed 3 times with binding buffer at 4° C., once with phosphate buffered saline and boiled in SDS-PAGE buffer. Labeled proteins that were bound to the Ig-fusion proteins were analyzed by SDS-PAGE under reducing conditions. Radiolabeled proteins were detected using a phosphorimager analyzer.

[2] = target: T1, VEGFR-3-Ig; test: as above
Procedure: as §1

[3] = target: T3, VEGFR-2-Ig (human, UniProt P35968 20-764); test: as above
T3 construct: extracellular domain; also called soluble Ig-fusion protein containing the extracellular domain of human VEGFR-2; not shown: Fc portion of human IgG1
Procedure: as §1

[4] = target: chimeric receptor consisting of the extracellular domain of mouse VEGFR-2 and the transmembrane and … (mouse, UniProt P35918 20-762; P14753 250-507, limits assumed); test: cell-based or functional assay
[5] = target: T2, VEGFR-1-Ig; test: not described; told in Example 3 with the receptor-Ig precipitations

T2 sequence (P17948 27-758): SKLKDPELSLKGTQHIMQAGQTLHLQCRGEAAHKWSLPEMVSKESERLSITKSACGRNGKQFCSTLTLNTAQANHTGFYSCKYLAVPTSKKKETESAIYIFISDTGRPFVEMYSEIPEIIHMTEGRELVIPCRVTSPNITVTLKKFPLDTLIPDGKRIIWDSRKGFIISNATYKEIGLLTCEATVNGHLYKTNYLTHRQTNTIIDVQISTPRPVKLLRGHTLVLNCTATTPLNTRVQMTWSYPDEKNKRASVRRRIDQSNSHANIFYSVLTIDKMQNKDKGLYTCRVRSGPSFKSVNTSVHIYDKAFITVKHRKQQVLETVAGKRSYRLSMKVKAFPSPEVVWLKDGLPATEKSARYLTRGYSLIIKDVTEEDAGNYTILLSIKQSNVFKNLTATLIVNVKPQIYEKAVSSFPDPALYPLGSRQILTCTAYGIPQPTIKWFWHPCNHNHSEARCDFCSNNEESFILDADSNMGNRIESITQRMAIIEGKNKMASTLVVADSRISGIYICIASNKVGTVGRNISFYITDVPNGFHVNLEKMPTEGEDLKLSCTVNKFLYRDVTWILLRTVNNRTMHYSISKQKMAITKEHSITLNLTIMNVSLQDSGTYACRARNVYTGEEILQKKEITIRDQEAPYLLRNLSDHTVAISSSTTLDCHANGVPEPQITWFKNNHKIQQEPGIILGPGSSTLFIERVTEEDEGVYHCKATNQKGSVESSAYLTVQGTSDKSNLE
T3 sequence (P35968 20-764): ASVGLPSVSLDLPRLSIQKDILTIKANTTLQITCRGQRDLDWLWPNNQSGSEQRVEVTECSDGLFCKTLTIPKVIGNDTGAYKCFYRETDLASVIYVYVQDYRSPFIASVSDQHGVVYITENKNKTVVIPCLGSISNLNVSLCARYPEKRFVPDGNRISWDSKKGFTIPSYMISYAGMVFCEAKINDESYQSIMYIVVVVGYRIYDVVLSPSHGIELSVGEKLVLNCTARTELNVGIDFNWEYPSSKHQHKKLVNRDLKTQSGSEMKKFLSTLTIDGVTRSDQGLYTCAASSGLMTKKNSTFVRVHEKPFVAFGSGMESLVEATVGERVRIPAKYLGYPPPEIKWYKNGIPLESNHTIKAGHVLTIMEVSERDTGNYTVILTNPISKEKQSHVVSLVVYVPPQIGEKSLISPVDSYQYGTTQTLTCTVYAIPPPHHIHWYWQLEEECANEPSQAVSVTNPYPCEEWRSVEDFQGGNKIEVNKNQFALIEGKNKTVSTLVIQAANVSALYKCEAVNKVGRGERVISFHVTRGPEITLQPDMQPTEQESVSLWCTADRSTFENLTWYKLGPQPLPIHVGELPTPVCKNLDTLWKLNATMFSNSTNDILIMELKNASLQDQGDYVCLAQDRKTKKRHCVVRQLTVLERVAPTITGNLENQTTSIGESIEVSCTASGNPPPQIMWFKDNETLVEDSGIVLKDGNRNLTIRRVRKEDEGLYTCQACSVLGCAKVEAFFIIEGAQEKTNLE
chimeric receptor consisting of the extracellular domain of mouse VEGFR-2 and the transmembrane and …, sequence (P35918 other isoform, or with tags, fused parts or gaps mutant limits assumed): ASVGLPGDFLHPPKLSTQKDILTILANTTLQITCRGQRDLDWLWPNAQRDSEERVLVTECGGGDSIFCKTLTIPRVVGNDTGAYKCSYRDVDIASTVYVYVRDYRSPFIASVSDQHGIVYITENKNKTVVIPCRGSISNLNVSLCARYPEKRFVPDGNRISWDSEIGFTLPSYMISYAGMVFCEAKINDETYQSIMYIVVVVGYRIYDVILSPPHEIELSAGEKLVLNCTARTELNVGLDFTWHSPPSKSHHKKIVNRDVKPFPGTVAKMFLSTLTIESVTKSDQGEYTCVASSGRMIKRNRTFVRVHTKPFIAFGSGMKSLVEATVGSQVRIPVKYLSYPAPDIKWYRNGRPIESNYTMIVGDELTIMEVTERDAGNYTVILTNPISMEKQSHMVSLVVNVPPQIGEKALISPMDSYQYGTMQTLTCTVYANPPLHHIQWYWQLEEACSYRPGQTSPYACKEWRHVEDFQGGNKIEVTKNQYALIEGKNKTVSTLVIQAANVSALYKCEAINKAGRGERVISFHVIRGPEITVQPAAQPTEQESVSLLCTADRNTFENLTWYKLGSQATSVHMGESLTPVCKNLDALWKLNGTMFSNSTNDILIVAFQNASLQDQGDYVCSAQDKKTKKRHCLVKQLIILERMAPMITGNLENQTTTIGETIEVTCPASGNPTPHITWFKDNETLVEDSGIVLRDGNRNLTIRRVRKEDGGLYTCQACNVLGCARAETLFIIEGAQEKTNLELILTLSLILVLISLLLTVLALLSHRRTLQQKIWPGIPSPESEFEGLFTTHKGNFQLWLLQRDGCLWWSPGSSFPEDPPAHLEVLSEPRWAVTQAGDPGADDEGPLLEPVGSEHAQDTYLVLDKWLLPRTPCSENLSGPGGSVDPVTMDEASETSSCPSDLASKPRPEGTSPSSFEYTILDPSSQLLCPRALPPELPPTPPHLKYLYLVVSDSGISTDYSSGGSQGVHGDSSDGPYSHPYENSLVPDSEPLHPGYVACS

| Binder | binding result [1] | binding result [2] | binding result [3] | potency in the Ba/F3 VEGFR-2-EpoR bioassay compared to mouse VEGF [4] | binding result [5] |
| --- | --- | --- | --- | --- | --- |
| B1 | no binding | no binding | binds | ~4 fold less potent than mouse VEGF |  |
| B2 |  |  |  |  | no binding |
| B3 | binds | no binding | binds |  |  |

From patent US6541008 (UNIVERSITY OF OTAGO, dated 2003)
